We go through one molecule from publication PMC3830444.

In the test the target is FPR-chloromethyl ketone-thrombin (active site-inhibited α-thrombin) (human), P00734. Nature of the test: ELISA. A general note: ELISA stands for enzyme-linked immunosorbent assay.

The term IC50 denotes the concentration that gives 50% inhibition. A low value points to greater potency.

The molecule GDFEPIPEDAYDE (modifications not checked) [H6HV3_(54-66)G6 synthetic peptide] gave an IC50 of 5 µM. That is a single-digit micromolar value.
